Assay [1] has as its target T1, CD16A on human primary NK cells (human, UniProt P08637 17-254).
T1 construct: whole, on cells; also called primary natural killer (NK) cells
The experiment in a line: flow cytometry (MFI, PE-anti-human Fc) on human primary NK cells, donor SLB190084. The procedure: (§1) Human PBMC cells were thawed (Sailybio, SLB190084 & SLB190071), and NK cells were enriched and isolated using a human NK cell enrichment kit (Stemcell, 19055) and centrifuged at 400 g for 5 min. The supernatant was removed, and the cells were resuspended in PBS. After counting, the cells were adjusted to a density of 2×10⁶ cells/mL, and the cell suspension was added to a U-bottom 96-well plate at 100 μL/well. Then, the test antibody was added to make a final concentration of 100 nM, and subjected to a 6-fold dilution to obtain 10 gradients. The mixture was left to stand on ice for a reaction for 1 h. The mixture was centrifuged at 300 g for 5 min, and the supernatant was removed. The cells were washed once with PBS. The mixture was centrifuged at 300 g for 5 min, and PBS was removed. 100 μL of PE-anti-human Fc antibody (Southern Biotech, 2040-09) diluted at a ratio of 1:200 was added to each well. The mixture was incubated on ice for 30 min in the dark. The mixture was centrifuged at 400 g for 5 min, and the supernatant was removed. The cells were washed twice with PBS, and then resuspended in 100 μL of PBS. A fluorescence shift assay was performed by using a flow cytometer (BD, Facscelesta). […] The control antibody used in FIGS. 2A and 2B was the same as that in Example 5.
In general terms: A flow cytometer gives signals particle by particle.

Assay [2] deals with T2, human CD16A (type 158V) on GS-CHO cells (human, UniProt P08637 17-254).
T2 construct: whole, on cells; also called GS-CHO cells expressing human CD16A
The experiment in a line: flow cytometry (MFI, PE-anti-human Fc) on GS-CHO cells expressing human CD16A (type 158V). The method, then:
After counting, the cells were adjusted to a density of 2×10⁶ cells/mL, and the cell suspension was added to a U-bottom 96-well plate at 100 μL/well. […] The mixture was centrifuged at 300 g for 5 min, and the supernatant was removed. The cells were washed once with PBS. The mixture was centrifuged at 300 g for 5 min, and PBS was removed. 100 μL of PE-anti-human Fc antibody (Southern Biotech, 2040-09) diluted at a ratio of 1:200 was added to each well. The mixture was incubated on ice for 30 min in the dark. The mixture was centrifuged at 400 g for 5 min, and the supernatant was removed. The cells were washed twice with PBS, and then resuspended in 100 μL of PBS. A fluorescence shift assay was performed by using a flow cytometer (BD, Facscelesta).

Assay [3] has as its target T1, CD16A on human primary NK cells. The experiment in a line: flow cytometry (MFI, PE-A) on human primary NK cells, donor SLB190071. The method, then:
as §1
In this example, the binding of anti-CD16A/HER2 and anti-CD16A/BCMA bispecific antibodies (subjected to gradient dilution) of the present invention to primary NK cells was assayed by flow cytometry. The assay method was the same as that in Example 6.

T1 sequence (P08637 17-254): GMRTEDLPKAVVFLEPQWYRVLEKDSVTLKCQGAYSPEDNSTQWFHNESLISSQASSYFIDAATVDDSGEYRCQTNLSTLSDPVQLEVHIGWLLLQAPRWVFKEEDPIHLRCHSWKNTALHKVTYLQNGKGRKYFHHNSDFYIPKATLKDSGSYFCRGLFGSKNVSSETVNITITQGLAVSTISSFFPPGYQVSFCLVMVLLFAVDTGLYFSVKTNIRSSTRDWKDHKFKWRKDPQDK
T2 sequence (P08637 17-254 F176V): as the sequence (P08637 17-254) above, with F160V counted along it

B1: Isotype-IgG1-Fc-LALA (antibody)
variable region (heavy or light not stated; listed first): EVRLLESGGGLVQPGGSLRLSCAASGFTFSNYAMGWVRQAPGKCLEWVSAISGSGGSTYYADSVKGRFTTSRDDSKNALYLQMNSLRAEDTAVYYCARGGPGWYAADVWGQGTTVTVSS
variable region (heavy or light not stated; listed second): DIQMTQSPSSLSASVGDRVTITCRASQSISSYLNWYQQKPGKAPKLLIYAASSLQSGVPSRFSGSGSGTDFTLTISSLQPEDFATYYCQQADLPAFAFGCGTKVEIK
notes: also called anti-Hen Egg Lysozyme (HEL) antibody; negative control
For the molecule B1, the binding result in assay [1] was “no binding (tested: log 2 (100 nM))”; in assay [2], “no binding (tested: log 2.8 (about 600 nM))”.

B2: 16A067 (bispecific antibody, human IgG1, kappa, L234A L235A)
heavy 1: not shown
heavy 2: EVQLVESGGGLVQPGRSLRLSCAASGFTFGDYAIHWVRQAPGKGLEWVSGISWDSSSIAYADSVKGRFTISRDNAKNSLYLQMNSLRAEDTAVYYCAKDSPVRDSFGSIAFDIWGQGTMVTVSSASTKGPSVFPLAPSSKSTSGGTAALGCLVKDYFPEPVTVSWNSGALTSGVHTFPAVLQSSGLYSLSSVVTVPSSSLGTQTYICNVNHKPSNTKVDKKVEPKSCDKTHTCPPCPAPEAAGGPSVFLFPPKPKDTLMISRTPEVTCVVVDVSHEDPEVKFNWYVDGVEVHNAKTKPREEQYNSTYRVVSVLTVLHQDWLNGKEYKCKVSNKALPAPIEKTISKAKGQPREPQVCTLPPSRDELTKNQVSLSCAVKGFYPSDIAVEWESNGQPENNYKTTPPVLDSDGSFFLVSKLTVDKSRWQQGNVFSCSVMHEALHNHYTQKSLSLSPGK
light: not shown
notes: 1+1 knob-into-hole format, sdAb-Fc arm and Fab-Fc arm, LALA; also called anti-CD16A/BCMA bispecific antibody (Y88A3 x ADI384-56)
What is called EC50 is the concentration needed to bring the measured effect to its halfway point. Low values mean a more potent agent, high ones a less potent agent. B2: the EC50 in assay [3] is 14.2 nM.

B3: 16A070 (bispecific antibody, human IgG1, kappa, L234A L235A)
heavy 1: not shown
heavy 2: B2 heavy 2
light: not shown
notes: 1+1 knob-into-hole format, sdAb-Fc arm and Fab-Fc arm, LALA; also called anti-CD16A/BCMA bispecific antibody (Y95H1 x ADI384-56)
Consider B3, for which it took 7.96 nM to reach a half-maximal effect in assay [3] (EC50).

B4: 16A068 (bispecific antibody, human IgG1, kappa, L234A L235A)
heavy 1: not shown
heavy 2: B2 heavy 2
light: not shown
notes: 1+1 knob-into-hole format, sdAb-Fc arm and Fab-Fc arm, LALA; also called anti-CD16A/BCMA bispecific antibody (Y99F6 x ADI384-56)
In turn, B4 had an EC50 in assay [3] of 50.5 nM.

B5: 16A069 (bispecific antibody, human IgG1, kappa, L234A L235A)
heavy 1: not shown
heavy 2: B2 heavy 2
light: not shown
notes: 1+1 knob-into-hole format, sdAb-Fc arm and Fab-Fc arm, LALA; also called anti-CD16A/BCMA bispecific antibody (Y100D6 x ADI384-56)
For B5, in assay [3], a half-maximal response (EC50) required 15.3 nM.

The record behind these values is patent US20240101677A1 (Innovent, published 2024).
